Laboratory results as given in patent US6280955.

Target: IL-1RI (cell surface IL-1 receptor) (Homo sapiens (Human)) (UniProt P14778)

epitope-tagged IL-1RAcP (amino-terminal FLAG fusion, full length, transiently expressed from pFlag-CMV-1) (receptor)
NF-κB-dependent luciferase reporter gene in 293 cells, ligand-independent: 20 fold
